Entries after “also recorded” stand apart in the source; their conditions may differ.
Test system: MN9D cells
Assay: Dopamine content of MN9D cells in monolayer culture after incubation with protein (HPLC)
Assay type: cell-based, mouse
Method: […] The MN9D cells on each plate were then collected in 10 ml of CMF, transferred to 15 ml centrifuge tubes and centrifuged at 1000×g for 5 min. The supernatant was removed and 600 μl of 0.5 N perchloric acid was added to the cell pellet which was then sonicated on ice for 10-15 s. The cell extract was centrifuged at 4000×g for 30 min and the supernatant stored at −80° C. for subsequent high pressure liquid chromatography (HPLC) analysis of MN9D cell dopamine content. The pellet was stored at −20° C. for subsequent protein analysis.
A second experiment was then conducted to determine whether this effect was due to a change in the doubling time (24 h) of the MN9D cells with increased cell production or was the result of an increase in cellular dopamine. […] Cells were removed from the plates and cell numbers determined by counting in a hematocytometer. Dopamine content was determined by HPLC analysis. The MN9D cells can be differentiated by exposure to either sodium butyrate or dibutryl cyclic adenosine monophosphate for 5 days (Choi et al., 1991) resulting in a reduction in the rate of cell division and the production of extensive cellular processes.
Experiment involved 24 hour incubation with X61 protein(s). X61 protein(s) was incubated with 100 microliter of concentrated monoclonal antibody against 14-3-3 (anti-14-3-3) obtained from Santa Cruz Biotechnology for 15 minutes at room temperature prior to addition to MN9D cells grown on 6-well plates. Data given as ng dopamine per well, n=3. The reason for the lower amounts of dopamine seen in this experiment as compared to that in Tables 2 and 3 is related to differences in time of exposure and plate size. X61 protein(s) were also preincubated with an antibody against neuronal nuclear protein as a control. This antibody had no effect on X61 protein(s) activity.
After this period, the MN9D cells on each plate are collected in 10 ml of CMF, transferred to 15 ml centrifuge tubes and centrifuged at 1000×g for 5 min. The supernatant is removed and 600 μl of 0.5N perchloric acid is added to the cell pellet which is then sonicated on ice for 10-15 seconds. The material obtained is centrifuged at 4000×g for 30 minutes and the supernatant stored at −80° C. MN9D cell DA content is determined by reverse phase high pressure liquid chromatography with electrochemical detection (HPLC-ED) as previously described (Heller et al., 1993). The pellet is stored at −20° C. for subsequent protein analysis.

B1: ciliary neurotrophic factor (protein, UniProt P26441 1-200, looked up)
Ciliary neurotrophic factor: MAFTEHSPLTPHRRDLCSRSIWLARKIRSDLTALTESYVKHQGLNKNINLDSADGMPVASTDQWSELTEAERLQENLQAYRTFHVLLARLLEDQQVHFTPTEGDFHQAIHTLLLQVAAFAYQIEELMILLEYKIPRNEADGMPINVGDGGLFEKKLWGLKVLQELSQWTVRSIHDLRFISSHQTGIPARGSHYIANNKKM
100 ng/ml, 24 hour treatment
  effect on MN9D dopamine levels: no significant effect
100 ng/ml, 24 hour treatment, controls 157.8±3.3
  MN9D DA levels: 156.5±10.9 ng/plate

B2: glial derived neurotrophic factor (protein, UniProt P39905 78-211, looked up)
Glial cell line-derived …: SPDKQMAVLPRRERNRQAAAANPENSRGKGRRGQRGKNRGCVLTAIHLNVTDLGLGYETKEELIFRYCSGSCDAAETTYDKILKNLSRNRRLVSDKVGQACCRPIAFDDDLSFLDDNLVYHILRKHSAKRCGCI
1 ng/ml for 5 days
  effect on MN9D dopamine levels versus controls: significantly lower; also recorded: significant decrease
1 ng/ml for 5 days, control 467±18.4
  MN9D DA levels: 356.0±14.4 ng/plate

B3: transforming growth factor β2 (protein, UniProt P61812 303-414, looked up)
Transforming growth factor …: ALDAAYCFRNVQDNCCLRPLYIDFKRDLGWKWIHEPKGYNANFCAGACPYLWSSDTQHSRVLSLYNTINPEASASPCCVSQDLEPLTILYYIGKTPKIEQLSNMIVKSCKCS
  effect on MN9D DA levels: without effect
